Data taken from patent US20100004182A1 (MARUHA, published 2010).

How the values were obtained:
[1] = biological target: xanthine oxidase (XO) of cow's milk (from Wako Pure Chemical) (cow, UniProt P80457 2-1332); test: cell-based or functional assay
[2] = biological target: xanthine oxidase (XO) from butter milk (from Wako Pure Chemical) (UniProt P80457 2-1332); test: cell-based or functional assay
Chain of xanthine oxidase (XO) from butter milk (from Wako Pure Chemical) (P80457 2-1332 limits assumed): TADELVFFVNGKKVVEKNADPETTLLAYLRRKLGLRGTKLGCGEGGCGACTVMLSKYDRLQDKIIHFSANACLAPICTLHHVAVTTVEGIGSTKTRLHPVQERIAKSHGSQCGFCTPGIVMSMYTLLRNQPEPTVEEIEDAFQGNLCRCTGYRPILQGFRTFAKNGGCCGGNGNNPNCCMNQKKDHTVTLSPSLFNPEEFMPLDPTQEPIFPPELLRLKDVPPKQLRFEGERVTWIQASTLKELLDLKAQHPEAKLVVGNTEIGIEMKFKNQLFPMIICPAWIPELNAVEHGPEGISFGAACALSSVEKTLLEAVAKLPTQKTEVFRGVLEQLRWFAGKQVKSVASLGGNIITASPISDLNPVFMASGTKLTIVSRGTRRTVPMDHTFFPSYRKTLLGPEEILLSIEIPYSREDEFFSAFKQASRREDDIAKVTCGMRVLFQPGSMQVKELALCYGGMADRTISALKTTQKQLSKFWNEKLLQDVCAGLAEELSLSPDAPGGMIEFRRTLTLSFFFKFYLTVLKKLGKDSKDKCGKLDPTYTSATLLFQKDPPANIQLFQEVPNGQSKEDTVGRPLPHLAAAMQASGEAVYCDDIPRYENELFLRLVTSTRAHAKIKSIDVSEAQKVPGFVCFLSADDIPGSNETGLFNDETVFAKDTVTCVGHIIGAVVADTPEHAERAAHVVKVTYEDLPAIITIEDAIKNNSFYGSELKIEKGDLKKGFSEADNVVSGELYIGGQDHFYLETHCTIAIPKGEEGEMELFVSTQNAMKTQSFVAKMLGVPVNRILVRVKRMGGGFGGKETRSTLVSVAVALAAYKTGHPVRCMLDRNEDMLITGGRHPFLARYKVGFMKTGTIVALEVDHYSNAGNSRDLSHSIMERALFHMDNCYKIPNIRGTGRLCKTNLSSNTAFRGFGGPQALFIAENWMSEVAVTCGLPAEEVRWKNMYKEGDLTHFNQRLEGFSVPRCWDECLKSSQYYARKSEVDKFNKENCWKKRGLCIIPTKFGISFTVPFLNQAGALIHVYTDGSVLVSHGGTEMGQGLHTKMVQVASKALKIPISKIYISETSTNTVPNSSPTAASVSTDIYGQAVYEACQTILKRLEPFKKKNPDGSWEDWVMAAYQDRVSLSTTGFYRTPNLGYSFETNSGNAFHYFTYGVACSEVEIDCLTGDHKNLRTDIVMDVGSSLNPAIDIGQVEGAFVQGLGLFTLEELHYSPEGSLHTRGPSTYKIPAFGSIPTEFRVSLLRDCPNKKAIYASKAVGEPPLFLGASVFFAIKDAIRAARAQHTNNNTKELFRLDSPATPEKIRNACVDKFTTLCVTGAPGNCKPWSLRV

Chain of xanthine oxidase (XO) of cow's milk (from Wako Pure Chemical) (P80457 2-1332 limits assumed): as above

| Binder | 50% inhibitory concentration (IC50) of xanthine oxidase activity (uric acid produced from xanthine, OD at 292 nm) [1] | 50% inhibitory concentration (IC50) of xanthine oxidase activity (uric acid produced from xanthine, OD at 292 nm) [2] |
| --- | --- | --- |
| LD [peptide LD] | 1700 µM |  |
| YLDN [peptide YLDN] | 1200 µM |  |
| LDNY [peptide LDNY] | 750 µM |  |
| DN [peptide DN] | 500 µM |  |
| YINY [polypeptide having SEQ ID No. 2 (YINY)] |  | 3700 µM |
